Source: patent US20080102072A1

Columns and labels:
[1] = target: human IFNAR1, membrane receptor on cells (U266 human myeloma cells; Hela and A549 cells in the functional assays) (human) (UniProt P17181); experiment: cell-based or functional assay
[2] = target: human IFNAR1, membrane receptor on cells (U266 human myeloma cells; Hela and A549 cells in the functional assays) (human) (UniProt P17181); experiment: flow cytometry on U266 cells, fluoresceinated mAb 1 µg/100 µl, no soluble hIFNAR1
[3] = target: human IFNAR1, membrane receptor on cells (U266 human myeloma cells; Hela and A549 cells in the functional assays) (human) (UniProt P17181); experiment: flow cytometry on U266 cells, F-mAb preincubated with competitor: 10 µg soluble wild type hIFNAR1-IgG
[4] = target: hIFNAR1 ECD-IgG fusion protein (immunoadhesin, pRK5 hIFNAR1-IgG clone 53.65), wild type (human); experiment: competitive radioimmunoprecipitation with 125I-hIFNAR1-IgG and unlabeled hIFNAR1-IgG, Scatchard analysis
[5] = target: IFNAR1-IgG multiple alanine mutant 1, residues 19-25 (RWNRSDE to AWNASAA) (human); experiment: capture ELISA, mutant IFNAR1-IgG captured by goat anti-hIgG-Fc, mAb 10 µg/ml; OD as % of wild type IFNAR1-IgG
[6] = target: IFNAR1-IgG multiple alanine mutant 10, residues 383-388 (DEKLNK to AAALNA) (human); experiment: as above
[7] = target: IFNAR1-IgG multiple alanine mutant 2, residues 69-74 (EEIKLR to AAIALA) (human); experiment: as above
[8] = target: IFNAR1-IgG multiple alanine mutant 3, residues 76-80 (RAEKE to AAAAA) (human); experiment: as above
[9] = target: IFNAR1-IgG multiple alanine mutant 4, residues 103-111 (… to …) (human); experiment: as above
[10] = target: IFNAR1-IgG multiple alanine mutant 5, residues 148-152 (EERIE to AAAIA) (human); experiment: as above
[11] = target: IFNAR1-IgG multiple alanine mutant 6, residues 157-162 (RHKIYK to AAAIYA) (human); experiment: as above
[12] = target: IFNAR1-IgG multiple alanine mutant 7, residues 244-249 (HLYKWK to ALYAWA) (human); experiment: as above
[13] = target: IFNAR1-IgG multiple alanine mutant 8, residues 291-298 (EEIKFDTE to AAIAFATA) (human); experiment: as above
[14] = target: IFNAR1-IgG multiple alanine mutant 9, residues 352-359 (ERKIIEKK to AAAIIAAA) (human); experiment: as above
[15] = target: IFNAR1-IgG single alanine mutant D296A (human); experiment: capture ELISA, single alanine mutant IFNAR1-IgG captured by goat anti-hIgG-Fc; OD as % of wild type IFNAR1-IgG
[16] = target: IFNAR1-IgG single alanine mutant E291A (human); experiment: as above
[17] = target: IFNAR1-IgG single alanine mutant E292A (human); experiment: as above
[18] = target: IFNAR1-IgG single alanine mutant E298A (human); experiment: as above
[19] = target: IFNAR1-IgG single alanine mutant E69A (human); experiment: as above
[20] = target: IFNAR1-IgG single alanine mutant E70A (human); experiment: as above
[21] = target: IFNAR1-IgG single alanine mutant H244A (human); experiment: as above
[22] = target: IFNAR1-IgG single alanine mutant K247A (human); experiment: as above
[23] = target: IFNAR1-IgG single alanine mutant K249A (human); experiment: as above
[24] = target: IFNAR1-IgG single alanine mutant K294A (human); experiment: as above
[25] = target: IFNAR1-IgG single alanine mutant K72A (human); experiment: as above
[26] = target: IFNAR1-IgG single alanine mutant R74A (human); experiment: as above
[27] = target: human IFNAR1, membrane receptor on cells (U266 human myeloma cells; Hela and A549 cells in the functional assays) (human) (UniProt P17181); experiment: flow cytometry on U266 cells, F-mAb preincubated with competitor: 10 µg soluble hIFNAR1-IgG Mutant #7 (244-249)
[28] = target: human IFNAR1, membrane receptor on cells (U266 human myeloma cells; Hela and A549 cells in the functional assays) (human) (UniProt P17181); experiment: flow cytometry on U266 cells, F-mAb preincubated with competitor: 10 µg soluble hIFNAR1-IgG Mutant #8 (291-298)

Chain of IFNAR1-IgG multiple alanine mutant 9, residues 352-359 (ERKIIEKK to AAAIIAAA) (human) (chain, as listed by the source mutant limits assumed): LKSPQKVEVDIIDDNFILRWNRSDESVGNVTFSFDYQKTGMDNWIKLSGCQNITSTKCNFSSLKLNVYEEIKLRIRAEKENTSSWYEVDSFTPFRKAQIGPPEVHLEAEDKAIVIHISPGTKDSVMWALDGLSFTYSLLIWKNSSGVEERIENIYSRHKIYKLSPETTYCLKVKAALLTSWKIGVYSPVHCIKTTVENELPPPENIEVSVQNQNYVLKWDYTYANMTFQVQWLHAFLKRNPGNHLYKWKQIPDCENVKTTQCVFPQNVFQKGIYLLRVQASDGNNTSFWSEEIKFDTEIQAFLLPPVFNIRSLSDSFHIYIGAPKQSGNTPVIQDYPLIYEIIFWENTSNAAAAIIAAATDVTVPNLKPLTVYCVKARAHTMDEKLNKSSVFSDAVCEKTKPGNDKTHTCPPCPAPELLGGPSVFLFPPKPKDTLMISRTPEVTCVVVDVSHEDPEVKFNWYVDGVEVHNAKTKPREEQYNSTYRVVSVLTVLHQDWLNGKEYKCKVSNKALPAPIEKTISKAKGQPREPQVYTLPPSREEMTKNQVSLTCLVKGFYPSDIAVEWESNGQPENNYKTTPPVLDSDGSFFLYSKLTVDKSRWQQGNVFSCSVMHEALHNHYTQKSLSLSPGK
Chain of IFNAR1-IgG single alanine mutant K72A (human) (chain, as listed by the source K72A K72A limits assumed): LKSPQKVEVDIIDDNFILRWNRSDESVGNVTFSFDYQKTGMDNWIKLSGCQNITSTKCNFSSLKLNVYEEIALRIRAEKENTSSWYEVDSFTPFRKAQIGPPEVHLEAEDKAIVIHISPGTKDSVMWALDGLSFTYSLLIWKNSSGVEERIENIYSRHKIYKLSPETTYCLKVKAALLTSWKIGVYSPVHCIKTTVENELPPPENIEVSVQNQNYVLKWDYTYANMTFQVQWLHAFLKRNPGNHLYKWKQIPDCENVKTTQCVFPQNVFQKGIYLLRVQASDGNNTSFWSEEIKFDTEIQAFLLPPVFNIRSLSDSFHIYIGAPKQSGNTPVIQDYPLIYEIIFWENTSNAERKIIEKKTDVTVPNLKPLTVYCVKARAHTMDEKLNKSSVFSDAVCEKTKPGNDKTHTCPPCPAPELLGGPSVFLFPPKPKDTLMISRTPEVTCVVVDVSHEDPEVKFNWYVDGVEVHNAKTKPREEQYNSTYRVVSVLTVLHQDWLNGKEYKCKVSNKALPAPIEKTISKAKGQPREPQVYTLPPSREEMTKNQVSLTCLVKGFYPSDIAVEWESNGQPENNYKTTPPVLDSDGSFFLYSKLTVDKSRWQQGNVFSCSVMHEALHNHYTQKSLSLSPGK
Chain of IFNAR1-IgG single alanine mutant E291A (human) (chain, as listed by the source E291A E291A limits assumed): as the sequence (chain, as listed by the source K72A K72A limits assumed) above, with A72K, E291A counted along it
Chain of IFNAR1-IgG single alanine mutant K249A (human) (chain, as listed by the source K249A K249A limits assumed): as the sequence (chain, as listed by the source K72A K72A limits assumed) above, with A72K, K249A counted along it
Chain of IFNAR1-IgG multiple alanine mutant 7, residues 244-249 (HLYKWK to ALYAWA) (human) (chain, as listed by the source mutant limits assumed): as the sequence (chain, as listed by the source K72A K72A limits assumed) above, with A72K, H244A, K247A, K249A counted along it
Chain of IFNAR1-IgG multiple alanine mutant 8, residues 291-298 (EEIKFDTE to AAIAFATA) (human) (chain, as listed by the source mutant limits assumed): as the sequence (chain, as listed by the source K72A K72A limits assumed) above, with A72K, E291A, E292A, K294A, D296A, E298A counted along it
Chain of IFNAR1-IgG single alanine mutant D296A (human) (chain, as listed by the source D296A D296A limits assumed): as the sequence (chain, as listed by the source K72A K72A limits assumed) above, with A72K, D296A counted along it
Chain of IFNAR1-IgG multiple alanine mutant 10, residues 383-388 (DEKLNK to AAALNA) (human) (chain, as listed by the source mutant limits assumed): as the sequence (chain, as listed by the source K72A K72A limits assumed) above, with A72K, D383A, E384A, K385A, K388A counted along it

Row | Substance | EC50 of mAb neutralizing the anti-viral cytopathic effect of 10 units/ml IFNα1 on A549 cells (EMC virus) [1] | EC50 of mAb neutralizing the anti-viral cytopathic effect of 10 units/ml IFNα2/1 on A549 cells (EMC virus) [1] | EC50 of mAb neutralizing the anti-viral cytopathic effect of 10 units/ml IFNα2 on A549 cells (EMC virus) [1] | EC50 of mAb neutralizing the anti-viral cytopathic effect of 10 units/ml IFNα5 on A549 cells (EMC virus) [1] | EC50 of mAb neutralizing the anti-viral cytopathic effect of 10 units/ml IFNα8 on A549 cells (EMC virus) [1] | EC50 of mAb neutralizing the anti-viral cytopathic effect of 10 units/ml IFNβ on A549 cells (EMC virus) [1] | Kd [4] | % Wild type binding of mAbs [5] | % Wild type binding of mAbs [6] | % Wild type binding of mAbs [7] | % Wild type binding of mAbs [8] | % Wild type binding of mAbs [9] | % Wild type binding of mAbs [10] | % Wild type binding of mAbs [11] | % Wild type binding of mAbs [12] | % Wild type binding of mAbs [13] | % Wild type binding of mAbs [14] | % Wild type binding of mAbs [15] | % Wild type binding of mAbs [16] | % Wild type binding of mAbs [17] | other results
1 | anti-hIFNAR1 monoclonal antibody 2E8 (hybridoma ATCC HB 12130) | > 30 µg/mL | > 30 µg/mL | > 30 µg/mL | > 30 µg/mL | > 30 µg/mL | > 30 µg/mL | 97 pM | 84% | 116% | 18% | 69% | 33% | 43% | 77% | 77% | 0% | 81% | 3% | 3% | 29% | Mean Fluorescence Intensity [2]: 7.96; Mean Fluorescence Intensity [3]: 3.16; % Wild type binding of mAbs [18]: 31%; % Wild type binding of mAbs [19]: 72%; % Wild type binding of mAbs [20]: 80%; % Wild type binding of mAbs [21]: 96%; % Wild type binding of mAbs [22]: 66%; % Wild type binding of mAbs [23]: 54%; % Wild type binding of mAbs [24]: 54%; % Wild type binding of mAbs [25]: 89%; % Wild type binding of mAbs [26]: 53%; Mean Fluorescence Intensity [27]: 3.27; Mean Fluorescence Intensity [28]: 7.6
2 | anti-hIFNAR1 monoclonal antibody 2H6 (hybridoma ATCC HB 12131) | > 30 µg/mL | > 30 µg/mL | > 30 µg/mL | > 30 µg/mL | > 30 µg/mL | > 30 µg/mL | 3120 pM | 77% | 93% | 0% | 48% | 39% | 68% | 90% | 105% | 64% | 101% | 49% | 49% | 55% | % Wild type binding of mAbs [18]: 53%; % Wild type binding of mAbs [19]: 64%; % Wild type binding of mAbs [20]: 79%; % Wild type binding of mAbs [21]: 94%; % Wild type binding of mAbs [22]: 88%; % Wild type binding of mAbs [23]: 69%; % Wild type binding of mAbs [24]: 65%; % Wild type binding of mAbs [25]: 89%; % Wild type binding of mAbs [26]: 0%
3 | anti-hIFNAR1 monoclonal antibody 4A7 (hybridoma ATCC HB 12132) | 10 µg/mL | 20 µg/mL | 10 µg/mL | 6 µg/mL | 3 µg/mL | > 30 µg/mL | 52 pM | 95% | 103% | 0% | 92% | 80% | 90% | 100% | 106% | 96% | 101% | 53% | 58% | 58% | Mean Fluorescence Intensity [2]: 9.49; Mean Fluorescence Intensity [3]: 2.45; % Wild type binding of mAbs [18]: 60%; % Wild type binding of mAbs [19]: 69%; % Wild type binding of mAbs [20]: 85%; % Wild type binding of mAbs [21]: 96%; % Wild type binding of mAbs [22]: 86%; % Wild type binding of mAbs [23]: 73%; % Wild type binding of mAbs [24]: 69%; % Wild type binding of mAbs [25]: 91%; % Wild type binding of mAbs [26]: 30%; Mean Fluorescence Intensity [27]: 2.95; Mean Fluorescence Intensity [28]: 3.16
4 | anti-hIFNAR1 monoclonal antibody 5A8 (hybridoma ATCC HB 12129) | > 30 µg/mL | > 30 µg/mL | > 30 µg/mL | > 30 µg/mL | > 30 µg/mL | > 30 µg/mL | 174 pM | 110% | 83% | 67% | 109% | 34% | 80% | 100% | 110% | 75% | 81% | 70% | 61% | 66% | % Wild type binding of mAbs [18]: 72%; % Wild type binding of mAbs [19]: 91%; % Wild type binding of mAbs [20]: 83%; % Wild type binding of mAbs [21]: 99%; % Wild type binding of mAbs [22]: 93%; % Wild type binding of mAbs [23]: 71%; % Wild type binding of mAbs [24]: 82%; % Wild type binding of mAbs [25]: 110%; % Wild type binding of mAbs [26]: 84%
